Reference: US20180155451A1 (published 2018)

Key:
FcγRIa [1] = target: T1, FcγRIa (human, UniProt P12314 16-292); test: SPR (Biacore); He/Con_1a divided by He/Con_2b (FcγRIa against FcγRIIb)
T1 construct: extracellular domain; Soluble extracellular domain with C-terminal His tag, used as analyte in Biacore; also called FcgRI; 1a; not shown: His tag attached to the C terminus

FcγRIa [2] = target: T1, FcγRIa; test: SPR (Biacore), antibody captured on antigen peptide, FcγR as analyte; relative to GpH7-A5/GpH7-B3/GpL16-k0 = 100
FcγRIIb = target: T2, FcγRIIb (human, UniProt P31994 43-217); test: as above
T2 construct: extracellular domain; Soluble extracellular domain with C-terminal His tag, used as analyte in Biacore; also called FcgRIIb; 2b; not shown: His tag attached to the C terminus
T2 sequence (looked up): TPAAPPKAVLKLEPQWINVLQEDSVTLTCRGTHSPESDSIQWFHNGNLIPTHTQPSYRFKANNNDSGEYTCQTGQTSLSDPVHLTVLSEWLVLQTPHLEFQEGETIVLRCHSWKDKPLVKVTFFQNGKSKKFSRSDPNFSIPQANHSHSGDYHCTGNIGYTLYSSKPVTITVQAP

T1 sequence (P12314 16-292): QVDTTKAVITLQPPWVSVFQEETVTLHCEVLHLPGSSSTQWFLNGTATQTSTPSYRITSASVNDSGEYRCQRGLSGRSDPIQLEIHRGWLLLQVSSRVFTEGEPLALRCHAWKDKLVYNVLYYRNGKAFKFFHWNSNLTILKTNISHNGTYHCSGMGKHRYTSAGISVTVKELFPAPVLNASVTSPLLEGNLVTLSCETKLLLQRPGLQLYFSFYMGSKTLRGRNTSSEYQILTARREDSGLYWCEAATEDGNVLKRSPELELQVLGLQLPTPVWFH

Binder | Ia/IIb He_1a/2b (FcγRIa [1]) [ratio] | He/Con_1a (FcγRIa [2]) | He/Con_2b (FcγRIIb)
GpH7-A5/GpH7-B3 variant P238_09D/GpL16-k0 (antibody, human IgG1, kappa, Heterodimerized IgG1; mutation in the GpH7-B3 H chain only; also called He Ab) heavy 1: not shown heavy 2: not shown light: DIVMTQSPLSLPVTPGEPASISCQASESLVHSNRNTYLHWYLQKPGQSPQLLIYKVSNRFSGVPDRFSGSGSGTDFTLKISRVEAEDVGVYYCSQNTHVPPTFGQGTKVEIERTVAAPSVFIFPPSDEQLKSGTASVVCLLNNFYPREAKVQWKVDNALQSGNSQESVTEQDSKDSTYSLSSTLTLSKADYEKHKVYACEVTHQGLSSPVTKSFNRGEC | 0.43 | 96 % of control | 221 % of control
GpH7-A5/GpH7-B3 variant L235_09D/GpL16-k0 (antibody, human IgG1, kappa, Heterodimerized IgG1; mutation in the GpH7-B3 H chain only; also called He Ab) heavy 1: not shown heavy 2: not shown light: DIVMTQSPLSLPVTPGEPASISCQASESLVHSNRNTYLHWYLQKPGQSPQLLIYKVSNRFSGVPDRFSGSGSGTDFTLKISRVEAEDVGVYYCSQNTHVPPTFGQGTKVEIERTVAAPSVFIFPPSDEQLKSGTASVVCLLNNFYPREAKVQWKVDNALQSGNSQESVTEQDSKDSTYSLSSTLTLSKADYEKHKVYACEVTHQGLSSPVTKSFNRGEC | 0.8 | 84.8 % of control | 106 % of control
GpH7-A5/GpH7-B3 variant L235_15Y/GpL16-k0 (antibody, human IgG1, kappa, Heterodimerized IgG1; mutation in the GpH7-B3 H chain only; also called He Ab) heavy 1: not shown heavy 2: not shown light: DIVMTQSPLSLPVTPGEPASISCQASESLVHSNRNTYLHWYLQKPGQSPQLLIYKVSNRFSGVPDRFSGSGSGTDFTLKISRVEAEDVGVYYCSQNTHVPPTFGQGTKVEIERTVAAPSVFIFPPSDEQLKSGTASVVCLLNNFYPREAKVQWKVDNALQSGNSQESVTEQDSKDSTYSLSSTLTLSKADYEKHKVYACEVTHQGLSSPVTKSFNRGEC | 0.65 | 97.1 % of control | 149 % of control
GpH7-A5/GpH7-B3 variant P238_15Y/GpL16-k0 (antibody, human IgG1, kappa, Heterodimerized IgG1; mutation in the GpH7-B3 H chain only; also called He Ab) heavy 1: not shown heavy 2: not shown light: DIVMTQSPLSLPVTPGEPASISCQASESLVHSNRNTYLHWYLQKPGQSPQLLIYKVSNRFSGVPDRFSGSGSGTDFTLKISRVEAEDVGVYYCSQNTHVPPTFGQGTKVEIERTVAAPSVFIFPPSDEQLKSGTASVVCLLNNFYPREAKVQWKVDNALQSGNSQESVTEQDSKDSTYSLSSTLTLSKADYEKHKVYACEVTHQGLSSPVTKSFNRGEC | 0.46 | 101 % of control | 218 % of control
GpH7-A5/GpH7-B3 variant P238_06M/GpL16-k0 (antibody, human IgG1, kappa, Heterodimerized IgG1; mutation in the GpH7-B3 H chain only; also called He Ab) heavy 1: not shown heavy 2: not shown light: DIVMTQSPLSLPVTPGEPASISCQASESLVHSNRNTYLHWYLQKPGQSPQLLIYKVSNRFSGVPDRFSGSGSGTDFTLKISRVEAEDVGVYYCSQNTHVPPTFGQGTKVEIERTVAAPSVFIFPPSDEQLKSGTASVVCLLNNFYPREAKVQWKVDNALQSGNSQESVTEQDSKDSTYSLSSTLTLSKADYEKHKVYACEVTHQGLSSPVTKSFNRGEC | 0.59 | 102 % of control | 174 % of control
GpH7-A5/GpH7-B3 variant H268_01G/GpL16-k0 (antibody, human IgG1, kappa, Heterodimerized IgG1; mutation in the GpH7-B3 H chain only; also called He Ab) heavy 1: not shown heavy 2: not shown light: DIVMTQSPLSLPVTPGEPASISCQASESLVHSNRNTYLHWYLQKPGQSPQLLIYKVSNRFSGVPDRFSGSGSGTDFTLKISRVEAEDVGVYYCSQNTHVPPTFGQGTKVEIERTVAAPSVFIFPPSDEQLKSGTASVVCLLNNFYPREAKVQWKVDNALQSGNSQESVTEQDSKDSTYSLSSTLTLSKADYEKHKVYACEVTHQGLSSPVTKSFNRGEC | 0.75 | 107 % of control | 144 % of control
GpH7-A5/GpH7-B3 variant G237_19Q/GpL16-k0 (antibody, human IgG1, kappa, Heterodimerized IgG1; mutation in the GpH7-B3 H chain only; also called He Ab) heavy 1: not shown heavy 2: not shown light: DIVMTQSPLSLPVTPGEPASISCQASESLVHSNRNTYLHWYLQKPGQSPQLLIYKVSNRFSGVPDRFSGSGSGTDFTLKISRVEAEDVGVYYCSQNTHVPPTFGQGTKVEIERTVAAPSVFIFPPSDEQLKSGTASVVCLLNNFYPREAKVQWKVDNALQSGNSQESVTEQDSKDSTYSLSSTLTLSKADYEKHKVYACEVTHQGLSSPVTKSFNRGEC | 0.77 | 82.8 % of control | 108 % of control
GpH7-A5/GpH7-B3 variant P238_08L/GpL16-k0 (antibody, human IgG1, kappa, Heterodimerized IgG1; mutation in the GpH7-B3 H chain only; also called He Ab) heavy 1: not shown heavy 2: not shown light: DIVMTQSPLSLPVTPGEPASISCQASESLVHSNRNTYLHWYLQKPGQSPQLLIYKVSNRFSGVPDRFSGSGSGTDFTLKISRVEAEDVGVYYCSQNTHVPPTFGQGTKVEIERTVAAPSVFIFPPSDEQLKSGTASVVCLLNNFYPREAKVQWKVDNALQSGNSQESVTEQDSKDSTYSLSSTLTLSKADYEKHKVYACEVTHQGLSSPVTKSFNRGEC | 0.49 | 101 % of control | 204 % of control
GpH7-A5/GpH7-B3 variant P238_04F/GpL16-k0 (antibody, human IgG1, kappa, Heterodimerized IgG1; mutation in the GpH7-B3 H chain only; also called He Ab) heavy 1: not shown heavy 2: not shown light: DIVMTQSPLSLPVTPGEPASISCQASESLVHSNRNTYLHWYLQKPGQSPQLLIYKVSNRFSGVPDRFSGSGSGTDFTLKISRVEAEDVGVYYCSQNTHVPPTFGQGTKVEIERTVAAPSVFIFPPSDEQLKSGTASVVCLLNNFYPREAKVQWKVDNALQSGNSQESVTEQDSKDSTYSLSSTLTLSKADYEKHKVYACEVTHQGLSSPVTKSFNRGEC | 0.32 | 101 % of control | 312 % of control
